In the assay the target is T1, human CD94 protein (human, UniProt Q13241 34-179, limits assumed).
T1 sequence (looked up): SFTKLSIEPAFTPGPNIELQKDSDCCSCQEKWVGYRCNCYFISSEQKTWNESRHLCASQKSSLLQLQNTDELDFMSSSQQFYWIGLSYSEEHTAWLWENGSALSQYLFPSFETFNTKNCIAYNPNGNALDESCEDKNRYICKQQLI
Kind of assay: OCTET BLI, Fab on human CD94 protein.

Substitutions are numbered along the chain they refer to.

B1: ATX-130 Fab (Fab, V domains shown)
VH: EVQLLESGGGLVKPGGSLRLSCAASGFTFSSYSMNWVRQAPGKGLEWVSSISTSSNFIYYADSVKGRFTISRDNAKNSLYLQMNSLRAEDTAVYYCARDLGRYYYYMDVWGKGTTVTVSS
VL: DIVMTQSPSSLSASVGDRVTITCRASQSISSWLAWYQQKPGKAPKSLIYAASSLQSGVPSKFSGSGSGTDFTLTISSLQPEDVATYYCQKYNSAPFTFGPGTKVDIK
notes: Fab version
Turning to B1, the koff is 0.0029 s⁻¹.

B2: Ab.26 Fab (Fab, V domains shown)
VH: B1 VH
VL: B1 VL with V3Q
notes: Fab version
Consider B2, for which the koff was determined as 0.00446 s⁻¹.

B3: Ab.27 Fab (Fab, V domains shown)
VH: B1 VH
VL: B1 VL with Y36F
notes: Fab version
The molecule B3 returned a koff of 0.00421 s⁻¹.

B4: Ab.28 Fab (Fab, V domains shown)
VH: B1 VH
VL: B1 VL with G41E
notes: Fab version
For B4, the koff amounted to 0.00425 s⁻¹.

B5: Ab.25 Fab (Fab, V domains shown)
VH: B1 VH with F57Y
VL: B1 VL
notes: Fab version; VH cell printed as 'SEO ID NO: 32'
On to B5, for which the koff was 0.00387 s⁻¹.

B6: Ab.34 Fab (Fab, V domains shown)
VH: B1 VH
VL: B1 VL with A94Y
notes: Fab version
Regarding B6, the koff stood at 0.00576 s⁻¹.

B7: Ab.22 Fab (Fab, V domains shown)
VH: B1 VH with L5V
VL: B1 VL
notes: Fab version
B7 displayed a koff of 0.00238 s⁻¹.

B8: Ab.32 Fab (Fab, V domains shown)
VH: B1 VH
VL: B1 VL with V83F
notes: Fab version
Molecule B8 came in with an off-rate constant (koff) of 0.0031 s⁻¹.

B9: Ab.24 Fab (Fab, V domains shown)
VH: B1 VH with N56S
VL: B1 VL
notes: Fab version
B9: the koff was determined as 0.00695 s⁻¹.

B10: Ab.29 Fab (Fab, V domains shown)
VH: B1 VH
VL: B1 VL with A43V
notes: Fab version
B10: the koff was 0.00338 s⁻¹.

B11: Ab.31 Fab (Fab, V domains shown)
VH: B1 VH
VL: B1 VL with K61R
notes: Fab version
Regarding B11, the koff was 0.00352 s⁻¹.

B12: Ab.33 Fab (Fab, V domains shown)
VH: B1 VH
VL: B1 VL with K90Q
notes: Fab version
On to B12, for which the koff came out at 0.00481 s⁻¹.

(Values after US20250197505A1 (DREN BIO, published 2025).)
